Patent publication US20250242012A1

Molecular target: soluble HRP-conjugated spike-RBD construct (HRP-RBD) of the SARS-CoV-2 neutralizing antibody ELISA a (SARS-CoV-2) (UniProt P0DTC2)

positive control reagent of the SARS-CoV-2 neutralizing antibody ELISA assay kit (Creative Diagnostics)
percent inhibition: 82.5%
